Assay results: patent US20240026443A1 (University of Washington, published 2024)

Molecular target: T1, DddA (intact deaminase domain of the bacterial toxin-derived double stranded DNA cytosine deaminase) (Burkholderia cenocepacia (strain H111), UniProt P0DUH5 1290-1427, limits assumed)
T1 construct: also called double stranded DNA deaminase
T1 sequence: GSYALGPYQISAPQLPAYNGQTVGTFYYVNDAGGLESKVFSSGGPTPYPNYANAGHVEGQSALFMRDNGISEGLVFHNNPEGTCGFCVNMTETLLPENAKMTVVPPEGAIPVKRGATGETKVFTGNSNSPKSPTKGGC
Assay: X-ray crystal structure of the complex

B1: double stranded DNA deaminase A immunity (DddAI) protein (other)
chain: MYADDFDGEIEIDEVDSLVEFLSRRPAFDANNFVLTFEESGFPQLNIFAKNDIAVVYYMDIGENFVSKGNSASGGTEKFYENKLGGEVDLSKDCVVSKEQMIEAAKQFFATKQRPEQLTWSEL
notes: Expressed inside P. aeruginosa from an arabinose-inducible promoter at the Tn7 attachment site; also called DddIA; DddA cognate immunity determinant
B1: binds.
